{
  "source": "patent US11180733B2",
  "about": "“Method of generating mesenchymal stem cells and uses thereof” (AGENCY FOR SCIENCE, TECHNOLOGY AND RESEARCH, priority 2016, dated 2021)",
  "molecules": {"B1": {"name": "activin A: Activin A formed by two activin βA subunits, member of the TGF-β superfamily (protein, UniProt P08476 311-426, looked up)", "Inhibin beta A chain": "GLECDGKVNICCKKQFFVSFKDIGWNDWIIAPSGYHANYCEGECPSHIAGTSGSSLSFHSTVINHYRMRGHSPFANLKSCCVPTKLRPMSMLYYDDGQNIIKKDIQNMIVEECGCS", "modifications": "Inhibin beta A chain"}, "B2": {"name": "noggin: antagonism of BMP signaling (protein, UniProt Q13253 28-232, looked up)", "Noggin": "QHYLHIRPAPSDNLPLVDLIEHPDPIFDPKEKDLNETLLRSLLGGHYDPGFMATSPPEDRPGGGGGAAGGAEDLAELDQLLRQRPSGAMPSEIKGLEFSEGLAQGKKQRLSKKLRRKLQMWLWSQTFCPVLYAWNDLGSRFWPRYVKVGSCFSKRSCSVPEGMVCKPSKSVHLTVLRWRCQRRGGQRCGWIPIQYPIISECKCSC"}, "B3": {"name": "BMP4: bone morphogenetic protein (protein, UniProt P12644 293-408, looked up)", "Bone morphogenetic protein 4": "SPKHHSQRARKKNKNCRRHSLYVDFSDVGWNDWIVAPPGYQAFYCHGDCPFPLADHLNSTNHAIVQTLVNSVNSSIPKACCVPTELSAISMLYLDEYDKVVLKNYQEMVVEGCGCR"}, "B4": {"name": "follistatin: protein encoded by the FST gene (protein, UniProt P19883 30-344, looked up)", "Follistatin": "GNCWLRQAKNGRCQVLYKTELSKEECCSTGRLSTSWTEEDVNDNTLFKWMIFNGGAPNCIPCKETCENVDCGPGKKCRMNKKNKPRCVCAPDCSNITWKGPVCGLDGKTYRNECALLKARCKEQPELEVQYQGRCKKTCRDVFCPGSSTCVVDQTNNAYCVTCNRICPEPASSEQYLCGNDGVTYSSACHLRKATCLLGRSIGLAYEGKCIKAKSCEDIQCTGGKKCLWDFKVGRGRCSLCDELCPDSKSDEPVCASDNATYASECAMKEAACSSGVLLEVKHSGSCNSISEDTEEEEEDEDQDYSFPISSILEW"}},
  "key": {"[1]": {"test_system": "human induced pluripotent stem cells (iPSCs)", "assay": "Differentiation of iPSCs towards primitive streak (PS)-like mesendoderm (morphology, qPCR)", "type": "cell-based", "procedure": "BJC1-iPSCs were differentiated towards primitive streak-like mesendoderm cells for 2 days with indicated combination of CHIR99021 (3 μM) and FGF (20 ng/ml) in conjunction with the indicated signaling perturbations, qPCR was performed at day 2. […] FIG. 9C represents data from FACS analysis showing more than 97% cells at day 2 were positive for primitive streak genes MIXL1, Brachyury (T) and GSC. FIG. 9D represents the immunofluoresence results at day 2 showing the expression of MIXL1, Brachyury (T) and GSC after 2 day of primitive streak induction.\niPSCs from MRCS or BJ cell lines, or hESCs were differentiated into primitive streak-like mesendoderm cells and primitive streak mesendoderm cells respectively. Feeder-free iPSCs were maintained in mTeSR (Stem Cell Technologies) before differentiation. To differentiate iPSCs, iPSCs were digested with 1 mg/ml collagenase IV for 5-10 min at 37° C. into small clumps and placed on a fibronectin (FN, 10 μg/ml)-coated surface in medium containing activin A (25 ng/ml) and CHIR99021 (3 μM) for 1 day in a basal medium (DMEM: F12, 1% ITS, 2% B27, 2 mM L-Glutamine, 90 uM ß-mercaptoethanol), followed by Activin A (25 ng/ml), CHIR99021 (3 μM) and FGF (20 ng/ml) for subsequent 24 hours to differentiate toward primitive streak (PS)-like mesendoderm.\nQuantitative real-time PCR was performed with Taqman expression assay using ABI PRISM 7900HT sequence Detection System (Applied Biosystems). Briefly, […] of total RNA was converted to cDNA using high capacity cDNA archive kit in 30 μl and then diluted to 500 μl. Quantitative real-time PCR was done as follows: initial denaturation for 2 min at 50° C., 10 min at 95° C., following 40 cycles of PCR (95° C. for 15 s, 60° C. for 1 min) by using 5 μl of 2× Master mix, 0.5 μl of probe and 4.5 μl of cDNA. All probes were designed with a 5′ fluoregenic 6-carboxylfluorescein, and a 3′ quencher, tetramethyl-6-carboxyrhodamine. The expression of human GAPDH was used to normalize gene expression levels."}, "BJC1-iPSCs": {"test_system": "BJC1-iPSCs", "assay": "Differentiation of PS-like mesendoderm towards lateral plate-like mesoderm (qPCR, cell number at day 10)", "type": "cell-based, human", "procedure": "BJC1-iPSCs were differentiated towards mesoderm after 8 days of differentiation with indicated combination of FGF (20 ng/ml), Rock inhibitor Y27632 (5 uM) and Follistatin (100 ng/ml) in conjunction with the indicated signaling perturbations, qPCR was performed at day 10. […] BJC1-iPSCs were differentiated towards mesoderm after 8 days of differentiation with indicated combination of FGF (20 ng/ml), BMP4 (40 ng/ml), and Rock inhibitor Y27632 (5 uM) in conjunction with the indicated signaling perturbations, qPCR was performed at day 10. […] Mesoderm differentiation was induced with FGF (20 ng/ml), BMP4 (40 ng/ml), rock inhibitor Y27632 (5 μM, only used at the time of passage and remove the next day) and follistatin (100 ng/ml) for 8 days. Quantitative real-time PCR was performed with Taqman expression assay using ABI PRISM 7900HT sequence Detection System (Applied Biosystems). Briefly, […] of total RNA was converted to cDNA using high capacity cDNA archive kit in 30 μl and then diluted to 500 μl. Quantitative real-time PCR was done as follows: initial denaturation for 2 min at 50° C., 10 min at 95° C., following 40 cycles of PCR (95° C. for 15 s, 60° C. for 1 min) by using 5 μl of 2× Master mix, 0.5 μl of probe and 4.5 μl of cDNA. All probes were designed with a 5′ fluoregenic 6-carboxylfluorescein, and a 3′ quencher, tetramethyl-6-carboxyrhodamine. The expression of human GAPDH was used to normalize gene expression levels."}, "[2]": {"conditions": "compared with wnt3a (ACF vs AWF)"}, "[3]": {"conditions": "with FGF 20 ng/ml, BMP4 40 ng/ml, Y27632 5 uM, qPCR at day 10"}},
  "note": "“Also recorded” adds a separate entry of the source.",
  "data": [
    {"molecule": "Cc1cnc(-c2cnc(NCCNc3ccc(C#N)cn3)nc2-c2ccc(Cl)cc2Cl)[nH]1", "note": "[CHIR99021, 6-[2-[[4-(2,4-dichlorophenyl)-5-(5-methyl-1H-imidazol-2-yl)pyrimidin-2-yl]amino]ethylamino]pyridine-3-carbonitrile, reference compound]", "values": [
      {"measurement": "adherence of iPSCs to the dish", "setting": "[1]; [2]", "result": "promoted the adherence of iPSCs to the dish"},
      {"measurement": "differentiation toward PS-like mesendoderm", "setting": "[1]; [2]", "result": "promoted differentiation toward PS-like mesendoderm"}
    ]},
    {"molecule": "FGF: fibroblast growth factor; in one specific example FGF2", "values": [
      {"measurement": "differentiation toward PS-like mesendoderm", "setting": "[1]; addition of FGF at day 2", "result": "did not further enhance differentiation toward PS-like mesendoderm"},
      {"measurement": "expression of mesoderm", "setting": "[1]; in the presence of FGF at day 2", "result": "expression of mesoderm increased"}
    ]},
    {"molecule": "C[C@@H](N)[C@H]1CC[C@H](C(=O)Nc2ccncc2)CC1.Cl.Cl", "note": "[Y27632, (R)-(+)-trans-4-(1-Aminoethyl)-N-(4-Pyridyl)cyclohexanecarboxamide dihydrochloride, reference compound]", "values": [
      {"measurement": "expression of lateral plate mesoderm genes Hand1 and FOXF1", "setting": "BJC1-iPSCs; compared to NT4, dihydrochloride", "result": "increased the expression of lateral plate mesoderm genes Hand1 and FOXF1; also recorded: significantly increases the expression of lateral plate mesoderm genes"},
      {"measurement": "increase in cell number", "setting": "BJC1-iPSCs; compared with neurotrophi-4 (NT), day 10", "result": "3.53±1.56", "unit": "fold"}
    ]},
    {"molecule": "B1", "values": [
      {"measurement": "differentiation towards PS-like mesendoderm expressing T, MIXL1 and GSC", "setting": "[1]; activin 25-100 ng/ml with CHIR99021 3 μM and FGF 20 ng/ml, qPCR at day 2", "result": "enhanced differentiation towards PS-like mesendoderm"},
      {"measurement": "expression of endodermal marker Sox17", "setting": "[1]; activin 25-100 ng/ml, qPCR at day 2", "result": "increased with the dose"},
      {"measurement": "activin A concentration at which the ratio of increased MIXL1 or T to Sox17 was the highest", "setting": "[1]; qPCR at day 2", "result": 25, "unit": "ng/mL"}
    ]},
    {"molecule": "B2", "values": [
      {"measurement": "expression of ectodermal gene Sox1", "setting": "BJC1-iPSCs; in the absence of BMP4 or in the presence of noggin, qPCR at day 10", "result": 38.65, "unit": "fold"}
    ]},
    {"molecule": "B3", "values": [
      {"measurement": "BMP4 concentration that led to the highest expression of lateral plate mesoderm markers", "setting": "BJC1-iPSCs; with FGF 20 ng/ml, Y27632 5 uM, Follistatin 100 ng/ml, qPCR at day 10", "result": 40, "unit": "ng/mL"}
    ]},
    {"molecule": "B4", "values": [
      {"measurement": "expression of lateral plate mesoderm genes Hand1 and FOXF1 and mesenchymal stem cell genes CD44 and CD105", "setting": "BJC1-iPSCs; presence compared to absence of Follistatin, qPCR at day 10", "result": "significantly increases the expression"},
      {"measurement": "endodermal differentiation Sox17 and FOXA1", "setting": "BJC1-iPSCs; [3]", "result": "inhibited endodermal differentiation"},
      {"measurement": "mesodermal differentiation", "setting": "BJC1-iPSCs; [3]", "result": "promoting mesodermal differentiation"}
    ]}
  ]
}
